# Assay: soluble on expression in E. coli; label from the status in PepcDB or PDB records
row,Sequence,soluble on expression in E. coli
1,MSLNVVKFGGSSLASAPQLQKVLQIVKEEPRRTFVVVSAPGKRTPQDIKVTDLLIQYYQRYLNNEEIESTISAIIRRYEDLFDELHLDKAVLADIAISIRQLATLPKENNAFLFDYFLASGEDNNAKVVASFFKQNGLDARYISPKELGLLVTPEPGNARILPKALEKISVYRETQQILVIPGFFGYTEAGEICTFSRGGSDITGSIVAAGVQADLYENFTDVDGIYVAHPGIIEQPQTIQELTYREMRELAYAGFAVLHDEALMPAYRANIPVVIKNTNNPHHPGTLITTSRKVKHAPVVGIASDQGFASIYISKYLMNRELGFGRRLLEVLEKLALSYEHMPSGIDDITIVLREDQLTTEIENRLMAQLQEVLAPDELRITHHLSMIMIVGEGMRQRIGVTAESTMALAKEKINLEMINQGSSEVSIMFGIKKEQEEKAIKALYRTFFHDEGHHHHHH,soluble
2,DPGERLYDLNMPAYVKFNYMAEREDELSLIKGTKVIVMEKCSDGWWRGSYNGQVGWFPSNYVTEEGDSPLGDHVG,soluble
3,MGSDKIHHHHHHMSQSIPEPHWHQTPQEFLASWSTSRGNLRRFFEEHALPPIDARTQREAGEAAAELAASELFGIKLDEYTSGLDSVSGSFEAAGAQHVTTANPEIPQDIGAAAFFDIDNTLIQGSSLVVFAMGLAKKKYFKLNEILPVAWKQIKFRVTGNENAHDVAEGRQQALEFIKGRRVDELVALCEEIVDNNMSEKLWPGTKQLADQHIADGQQVWLVSATPVQLAQALAKRLGFTGALGTVAEVKDGVFTGRLVGDILHGPGKLHAVAALATIERLDLSRCTAYSDSINDVPMLSMVGTAVAINPDRPLAKVAKQHGWAVRDYRSLRKAIRTFGIPALVTAAFSFGGWKAWRR,not soluble
4,MGSDKIHHHHHHAAVTKTTWSDAPAREFVFVENNSDDNFFVTPGGALDPRMTGANRWTGLKYTGSGTIYQQSLGYIDNGYNTGLNANWKFDMWLENSPVSHPLTGLRCINWYAGCDMATSLILPQTTDASGFYGATVTSGGAKWMHGMMSDAFYQYLQQMPVGGSFTMTINACQTSVNYDASSGARCKDQASGNWYVRNVTHTKAANLRLINTHSLAEVFINSDGVPTLGEGNADCRTQTIGSRSGLSCKMVNYTLQTNGLSNTSIHIFPAIANSSLASAVGAYDMQFSLNGSSWKPVSNTAYYYTFNEMKSSDSIYVFFSSNFFKQMVNLGISDINTKDLFNFRFQNTTSPESGWYEFSTSNTLIIKPRDFSISIISDEYTSAPSREGYVGSGEPALDFGYIVTTSGKTAADEVLIKVTGPAQVIGGRSYCLFSSDDGTAKVPFPATLSFITRSGTTQTYDAGCDDSWRDMTDALWLTTPWTDISGEVGQMDKTTVKFSIPMDNAISLRTVDDNGWFGEVSASGEIHVQATWRNIN,not soluble
5,MSLRVTLREVAQEAGVSLKTASNVINHSGRMADATREKVQDVIDRLGYRVNVSARNLNRGKTGFITLAVPSLTAPYLAELANRVIDAARIYGYSVYITTYAEGSAQGARALLRNFNATVSDGMILSISEVEDLDPEDLDVDYPLVCVGARSTHGKADHVTPDDVQEARLAAQYLFDHGATNLAVIGSRTDPEHILELRDAVEGNAQLRMRGIFEACADQGVELDTRLVPNVGQDWTIGSGARMTQRIVDSGIPFDGIVAFNDQLALGALFTLAANGIAVPDRVQVIGFDNNEEAAYFQPPLTTMDSCLDWIAPTAVSRIINRIDGSRTLEPELITTQSRIIARATTRAEGHHHHHH,soluble
6,MGSDKIHHHHHHMKKIGLTTTVPIEVLLSAGYTPIDLNNIFVGSKDYSKYIDIAEKDGFPKSLCAWIKGIYGACISNDIKEIVGVHDGDCSNTKALTEVLSMKGIKVYPFSYPSSHNINDVKDELDAFMNLFHVTLNQVEKIRTRLNKLRELGIEIDKLTFEDNKATALENHIWQISFSDLNGDIDAFNSDLIKTIADIKKREASSSKLRLGYIGVPPMTPDIYEFVTNFDAKIVYNEVQREFAFPRSSKAKDIYEQYFDYTYPYDVYFRIDEISRQIEERHIDGIIHYTQAFCYRAVQDIVIKEKLRVPVINIEGDRLNHLDARTKLRLEAFLDMLLDSKEGIF,not soluble
7,EKFVFEGKGDEVIGIEKPGDFVVVLDEVEHEKFVRKGDNLIIQHNIDLSEALCGFVRTISTLDGRTIFYRVLPGEVIAHADVKVIHNEGMPMRRASSDKGDLLVQFDVKFPDKINPDAAKKLADLL,not soluble
8,KDWRDKDQSDGFGKVYVTEKVAQIKQIPFDASKLHSSPQMAAQHNMVDDGSGKVEIWRVENNGRIQVDQNSYGEFYGGDCYIILYTYPRGQIIYTWQGANATRDELTTSAFLTVQLDRSLGGQAVQIRVSQGKEPVHLLSLFKDKPLIIYKNGTSKKGGQAPAPPTRLFQVRRNLASITRIVEVDVDANSLNSNDVFVLKLPQNSGYIWVGKGASQEEEKGAEYVASVLKCKTLRIQEGEEPEEFWNSLGGKKDYQTSPLLETQAEDHPPRLYGCSNKTGRFVIEEIPGEFTQDDLAEDDVMLLDAWEQIFIWIGKDANEVEKKESLKSAKMYLETDPSGRDKRTPIVIIKQGHEPPTFTGWFLGWDSSKW,soluble
9,MADETTMRAGRGPGRACGRVSGVRILVVEDEPKMTALLARALTEEGHTVDTVADGRHAVAAVDGGDYDAVVLDVMLPGIDGFEVCARLRRQRVWTPVLMLTARGAVTDRIAGLDGGADDYLTKPFNLDELFARLRALSRRGPIPRPPTLEAGDLRLDPSEHRVWRADTEIRLSHKEFTLLEALIRRPGIVHTRAQLLERCWDAAYEARSNIVDVYIRYLRDKIDRPFGVTSLETIRGAGYRLRKDGGRHALPR,not soluble
10,MSLNKLSNVTLSAEQEKLRERVLSFMRSNLSQYKSDWKHPAMFVIQGDAGTGKSVILNSLFNEIQKLSQFSPSSEDILHGTHNYLVVNHPEMLKLYIRISDSFKYISKSSLERPTSLINNLQKRKVMADVVIVDEAHLLATSKDAFKRFYGENHLKDLMSLCKVLVLVYDDKQALRMGSYWDEGSNNGATLKDFYNEIPPKSRDWYTLKQQFRVAAPQNVLNWIDQISVAGKEGHHHHHH,not soluble
11,MGSDKIHHHHHHMNIKHLDVLRTLLATGSTIAAAKAMGLSQSGVSRMLQQLESDLAITLFARDKGRLIPTPEATVLGRDAQNVLLAIERMSGHAEDLRNGSAGPEIVRIGLPSSMWENFAPAMLIDYVRDFPGVRIETFFETTTAITKLVEERVIDLGFLRIEGETGPGIAIDKVASGESVCVVPKDHSLAELPEITVKHLRNVPLILIGRQRPNRMALDQAFQRAGVKQMVKIETHTNSSACSYVAHGLGVSIISSFYANLYRHLPVVYRPFVPRATQEFGLVRAAGVPLSIAAQALSDALKKQIRLSQEEQ,not soluble
12,EFNDKYPDINIDMELDNRFVDIVNERFDLAIRTGMLPDSSLIARKLVDANWVVCASPKYLAKHGIPKQPIELTKHNCLVYSYQETGAREWAFKAGDKMYQVTVDGNLCTNNSSALRN,not soluble
13,MTLEISNDYGKIDISNEVIASVVGGKAVECYGIVGMASRQQVRDGIAEILGHENYAKGIKVTENNGVVDIDMYIIVSYGVKISEVANNVQSTVKYTLEKSLNVSVNSINIYVQGVRVNNTGKKALEHHHHHH,not soluble
14,MLWGRREFVMREEDTVCVGSDGLQYCKVCGEAKEAFFPEGGFMGMKKHSRQCACDRKAYEEEQKYFKDKEHRELVSRNTSICFDESRMEEWTFENADMSDAVMHKAKSYVDNWEEMKRNHIGCLFWGPVGTGKSFIAGCIANELLKQEVTVKMTNFNTIIDDIFPLADKTEYINALASYQLLIIDDLGVERNSEYALGIIFSVIDRRIRSGRPLIITTNLPLNEIKSETMLDKRRIYDRILEMCTPMYVGGASKREAIASMKMEKAKTLLNTNKGEE,not soluble
15,SGGRHIQAIRCWTIWKYMKDYFPISLVKTAELDPSRNYIAGFHPHGVLAVGAFANLCTESTGFSSIFPGIRPHLMMLTLWFRAPFFRDYIMSAGLVTSEKESAAHILNRKGGGNLLGIIVGGAQEALDARPGSFTLLLRNRKGFVRLALTHGAPLVPIFSFGENDLFDQIPNSSGSWLRYIQNRLQKIMGISLPLFHGRGVFQYSFGLIPYRRPITTVVGKPIEVQKTLHPSEEEVNQLHQRYIKELCNLFEAHKLKFNIPADQHLEFC,soluble
16,SVLLSRELHPVAPLLDNLISALNKVYQRKGVNISMDISPEISFVGEQNDFVEVMGNVLDNACKYCLEFVEISARQTDDHLHIFVEDDGPGIPHSKRSLVFDRGQRADTLRPGQGVGLAVAREITEQYAGQIIASDSLLGGARMEVVFGRQHPTQKEE,soluble
17,MWRVVFDCEEAVRWLRQAKHTLESIRVDYEGGFYSWACFKANQAAEYSIKAVLRAAGLESFGHDLMALWRRARSLCQPLQEMEECIAVLNKLYLPPRYPDAWPGGAAPFENYTRRDAEEALECASRVYRAVEECLGEECEDS,soluble
18,ADLGHQTLGSNDGWGAYSTGTTGGSKASSSNVYTVSNRNQLVSALGKETNTTPKIIYIKGTIDMNVDDNLKPLGLNDYKDPEYDLDKYLKAYDPSTWGKKEPSGTQEEARARSQKNQKARVMVDIPANTTIVGSGTNAKVVGGNFQIKSDNVIIRNIEFQDAYDYFPQWDPTAGSSGNWASQYDNITINGGTHIWIDHCTFNDGSRPDSTSPKYYGRKYQHHDGQTDASNGANYITMSYNYYHDHDASSIFGSSDSKTSDDGKLKITLHHNRYKNIVQRAPRVRFGQVHVYNNYYEGSTSSSSYPFSYAWGIGKSSKIYAQNNVIDVPGLSAAKTISVFSGGTALYDSGTLLNGTQINASAANGLSSSVGWTPSLHGSIDASANVKSNVINQAGAGKLN,soluble
19,MSLSDAISFRPMTEADLDAVLKIEYAAFSHPWTRGIFSEGLKNYHCWLMFEGSQQVGHGVIQIILDEAHLLNITVKPESQGRGLGLRLLEHLMREAAGHQARECFLEVRASNQAAYRLYERYGFNEIGRRRDYYPAVGGREDALVMACTLFDEGHHHHHH,soluble
20,MKIVIAPDSYKESLSALEVATAIEQGFREIWPDADYLKLPLADGGEGTVEAMVEATAGRIVHVEVTGPLGHRVNAFYGLSGDARSAFIEMAAASGLEQVPPAQRDPLKTTSWGTGELIRHALDAGVEHIIIGIGGSATNDGGAGMVQALGARLRDAQGNDIAQGGIGLETLASIDISGLDKRLSACHIEVACDVTNPLTGKEGASAVFGPQKGATPEMIERLDTALTRYAHLIARDLHVDVLDLAGGGAAGGMGAALYAFCGAQLRRGIEIVTDALHLEACLADADLVITGEGRIDSQTIHGKVPIGVANIAKRYNKPVIGIAGSLTADVSVVHEHGLDAVFSVIYTICTLEDALKNASENVRMTARNVAATLKAGQQLR,not soluble
21,MILDTSVIIRIFRDRNFFEVLKERIDDDVKITSVTAYELQRGAVYIMLKHGRDYEFKLIRDFLEEVEILSFTPKDSEISAMIWAKLREKGYELNDADIMISAVSIRENEKLVTLDRDFEYISRVSELDVDILEEEL,not soluble
22,MGSDKIHHHHHHMAKGSKGFIVSIMGPVVDVKFPEEELPDIYNALEVVNPQTGQKVVLEVEQLIGDGVVRTVAMDSTDGLTKGLEVVDTGAPITAPVGKEVLGRILNVIGEPVDEAGEIKAKERWPIHRPAPELVEQSTEIEILETGIKVIDLLAPFPKGGKIGFFGGAGVGKTVLVMELIRNIAIEHKGFSVFAGVGERTREGNELWLEMQESGVLGNTVLVFGQMNEPPGARFRVALTALTIAEYFRDVEGRDVLLFIDNIFRFVQAGSEVSALLGRMPSAVGYQPTLATDMGELQERITSTRRGSITSVQAIYVPADDITDPAPATTFAHLDATVVLSRRIAELGLYPAVDPLDSSSKILDPAIVGREHYEVARGVQEVLQRYKDLQDIIAILGVEELSPEDKLVVHRARRIQRFLSQPFHVAERFTGRPGRYVPIEETIRGFKEILDGKLDDVPEQAFLMAGNIDEVKERAKEMRS,not soluble
